Test results as given in publication PMC5259782, “Allosteric Inhibition of Phosphoenolpyruvate Carboxylases is Determined by a Single Amino Acid Residue in Cyanobacteria” (Scientific Reports, 2017).
Values belong to the molecule of their own block, whether it stands above or below them.

Legend:
SyPEPC [1] = biological target: T1, SyPEPC (Synechocystis sp. PCC 6803, UniProt P74299); experiment: malate dehydrogenase-coupled NADH assay, residual activity; format: biochemical; details: read-out: SyPEPC activity (in vitro)
T1 construct: gene ppc
T1 sequence (P74299 1-1034): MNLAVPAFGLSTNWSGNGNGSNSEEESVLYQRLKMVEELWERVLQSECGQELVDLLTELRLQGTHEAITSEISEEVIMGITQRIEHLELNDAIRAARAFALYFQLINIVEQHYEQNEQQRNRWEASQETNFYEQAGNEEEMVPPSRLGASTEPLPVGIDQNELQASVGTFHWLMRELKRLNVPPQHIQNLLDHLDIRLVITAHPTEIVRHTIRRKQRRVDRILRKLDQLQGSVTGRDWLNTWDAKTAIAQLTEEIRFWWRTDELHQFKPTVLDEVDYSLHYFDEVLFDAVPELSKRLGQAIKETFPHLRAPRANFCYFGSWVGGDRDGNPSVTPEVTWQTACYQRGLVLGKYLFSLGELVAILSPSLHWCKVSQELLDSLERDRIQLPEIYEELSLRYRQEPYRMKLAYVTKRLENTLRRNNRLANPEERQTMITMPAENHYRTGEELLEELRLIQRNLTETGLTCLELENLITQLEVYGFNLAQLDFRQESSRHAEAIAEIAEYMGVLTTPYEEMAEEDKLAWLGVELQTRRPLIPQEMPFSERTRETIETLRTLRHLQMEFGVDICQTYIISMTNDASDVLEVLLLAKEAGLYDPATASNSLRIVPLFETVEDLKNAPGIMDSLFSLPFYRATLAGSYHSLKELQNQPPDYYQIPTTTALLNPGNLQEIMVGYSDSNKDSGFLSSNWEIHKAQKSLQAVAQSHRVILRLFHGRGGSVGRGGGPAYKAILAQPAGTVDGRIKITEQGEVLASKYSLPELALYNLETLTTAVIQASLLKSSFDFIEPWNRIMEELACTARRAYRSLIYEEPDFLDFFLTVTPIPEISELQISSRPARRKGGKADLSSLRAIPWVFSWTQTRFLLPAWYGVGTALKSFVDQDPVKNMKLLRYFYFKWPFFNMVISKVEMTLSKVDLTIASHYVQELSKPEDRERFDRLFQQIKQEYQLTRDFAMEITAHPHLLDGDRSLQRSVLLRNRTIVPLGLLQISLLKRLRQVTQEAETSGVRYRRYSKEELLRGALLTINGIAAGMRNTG
Source text: malate dehydrogenase-coupled NADH assay, residual activity on SyPEPC

SyPEPC [2] = biological target: T2, SyPEPC (Synechocystis sp. PCC 6803, UniProt P74299, E954K); experiment: as above; format: biochemical; details: fumarate; allosteric
T2 construct: gene ppc

AnPEPC = biological target: T3, AnPEPC (Nostoc sp. PCC 7120 = FACHB-418, UniProt P28594); experiment: as above; format: biochemical; details: read-out: % activity remaining at 1 mM
T3 construct: gene ppc

[3] = substrate: C=C(OP(=O)(O)O)C(=O)O; experiment: malate dehydrogenase-coupled NADH assay (A340), Lineweaver-Burk; format: biochemical, Synechocystis sp. PCC 6803
purified protein = substrate: O=C(O)O; experiment: purified protein; details: PEP
[4] = substrate: C=C(OP(=O)(O)O)C(=O)O; experiment: malate dehydrogenase-coupled NADH assay (A340), Lineweaver-Burk; format: biochemical, Nostoc sp. PCC 7120 = FACHB-418

- activity at 1000 µM (SyPEPC [1]): 75 ± 9.7%
Molecule: O=C(O)/C=C/C(=O)O [fumarate]
- % activity remaining (SyPEPC [2]): The inhibitory effect of fumarate was also enhanced in SyPEPC_E954K compared with SyPEPC

- remaining activity at 1000 µM (AnPEPC): < 30%
- activity at 1000 µM (SyPEPC [1]): 77.1 ± 6.3%
Molecule: O=C(O)C[C@H](O)C(=O)O [malate]

- activity at 1000 µM (SyPEPC [1]): 124 ± 12.3%
Molecule: O=C(O)CCC(=O)O [succinate]

B1: SyPEPC (Synechocystis sp. PCC 6803 substr. Kazusa; E954K) (protein)
chain: MNLAVPAFGLSTNWSGNGNGSNSEEESVLYQRLKMVEELWERVLQSECGQELVDLLTELRLQGTHEAITSEISEEVIMGITQRIEHLELNDAIRAARAFALYFQLINIVEQHYEQNEQQRNRWEASQETNFYEQAGNEEEMVPPSRLGASTEPLPVGIDQNELQASVGTFHWLMRELKRLNVPPQHIQNLLDHLDIRLVITAHPTEIVRHTIRRKQRRVDRILRKLDQLQGSVTGRDWLNTWDAKTAIAQLTEEIRFWWRTDELHQFKPTVLDEVDYSLHYFDEVLFDAVPELSKRLGQAIKETFPHLRAPRANFCYFGSWVGGDRDGNPSVTPEVTWQTACYQRGLVLGKYLFSLGELVAILSPSLHWCKVSQELLDSLERDRIQLPEIYEELSLRYRQEPYRMKLAYVTKRLENTLRRNNRLANPEERQTMITMPAENHYRTGEELLEELRLIQRNLTETGLTCLELENLITQLEVYGFNLAQLDFRQESSRHAEAIAEIAEYMGVLTTPYEEMAEEDKLAWLGVELQTRRPLIPQEMPFSERTRETIETLRTLRHLQMEFGVDICQTYIISMTNDASDVLEVLLLAKEAGLYDPATASNSLRIVPLFETVEDLKNAPGIMDSLFSLPFYRATLAGSYHSLKELQNQPPDYYQIPTTTALLNPGNLQEIMVGYSDSNKDSGFLSSNWEIHKAQKSLQAVAQSHRVILRLFHGRGGSVGRGGGPAYKAILAQPAGTVDGRIKITEQGEVLASKYSLPELALYNLETLTTAVIQASLLKSSFDFIEPWNRIMEELACTARRAYRSLIYEEPDFLDFFLTVTPIPEISELQISSRPARRKGGKADLSSLRAIPWVFSWTQTRFLLPAWYGVGTALKSFVDQDPVKNMKLLRYFYFKWPFFNMVISKVEMTLSKVDLTIASHYVQELSKPEDRERFDRLFQQIKQEYQLTRDFAMKITAHPHLLDGDRSLQRSVLLRNRTIVPLGLLQISLLKRLRQVTQEAETSGVRYRRYSKEELLRGALLTINGIAAGMRNTG
- Km ([3]; 50 mM NaHCO3, 10 mM MgCl2): 820 µM
- Km (purified protein; 10 mM MgCl2): 760 µM

B2: SyPEPC (Synechocystis sp. PCC 6803 substr. Kazusa) (protein)
chain: MNLAVPAFGLSTNWSGNGNGSNSEEESVLYQRLKMVEELWERVLQSECGQELVDLLTELRLQGTHEAITSEISEEVIMGITQRIEHLELNDAIRAARAFALYFQLINIVEQHYEQNEQQRNRWEASQETNFYEQAGNEEEMVPPSRLGASTEPLPVGIDQNELQASVGTFHWLMRELKRLNVPPQHIQNLLDHLDIRLVITAHPTEIVRHTIRRKQRRVDRILRKLDQLQGSVTGRDWLNTWDAKTAIAQLTEEIRFWWRTDELHQFKPTVLDEVDYSLHYFDEVLFDAVPELSKRLGQAIKETFPHLRAPRANFCYFGSWVGGDRDGNPSVTPEVTWQTACYQRGLVLGKYLFSLGELVAILSPSLHWCKVSQELLDSLERDRIQLPEIYEELSLRYRQEPYRMKLAYVTKRLENTLRRNNRLANPEERQTMITMPAENHYRTGEELLEELRLIQRNLTETGLTCLELENLITQLEVYGFNLAQLDFRQESSRHAEAIAEIAEYMGVLTTPYEEMAEEDKLAWLGVELQTRRPLIPQEMPFSERTRETIETLRTLRHLQMEFGVDICQTYIISMTNDASDVLEVLLLAKEAGLYDPATASNSLRIVPLFETVEDLKNAPGIMDSLFSLPFYRATLAGSYHSLKELQNQPPDYYQIPTTTALLNPGNLQEIMVGYSDSNKDSGFLSSNWEIHKAQKSLQAVAQSHRVILRLFHGRGGSVGRGGGPAYKAILAQPAGTVDGRIKITEQGEVLASKYSLPELALYNLETLTTAVIQASLLKSSFDFIEPWNRIMEELACTARRAYRSLIYEEPDFLDFFLTVTPIPEISELQISSRPARRKGGKADLSSLRAIPWVFSWTQTRFLLPAWYGVGTALKSFVDQDPVKNMKLLRYFYFKWPFFNMVISKVEMTLSKVDLTIASHYVQELSKPEDRERFDRLFQQIKQEYQLTRDFAMEITAHPHLLDGDRSLQRSVLLRNRTIVPLGLLQISLLKRLRQVTQEAETSGVRYRRYSKEELLRGALLTINGIAAGMRNTG
- Km ([3]; 50 mM NaHCO3, 10 mM MgCl2, pH 7.3, 30 °C): 340 µM
- Km (purified protein; 10 mM MgCl2, pH 7.3, 30 °C, pH 7.3, 30.0 °C): 800 µM

B3: AnPEPC (Nostoc sp. PCC 7120 = FACHB-418) (protein)
chain: MGSVLYSLSESANLYPASELFLRHRLQIVEELWESVLRQECGQNMVDLLRQLRDLCSPEGQATKDQAVSAVKLIEQLNINEAIRAARAFALYFQLINIIEQEYEQRQQLTRYSDLEAETAPLNGSENITSSSNHNEDDVIFNRGLGTDFLGKNWTNRGQGKQKGTFAALFPLLSKLNVPPQQIQRLISQLDVRLVFTAHPTEIVRHTIRDKQRQVVDLLQQLDEVENRAKDGGGYPWEAGEIREKLLEEIRLWWRTDELHQFKPTVLDEVDYALHYFQEVLFDGIPQLYKRFKYALNQTFSWLEPPSKDFCSFGSWVGSDRDGNPSVTPEITWQTACYQRKMVLERYIKSVTQLIELLSISMHWSDVLPDLLESLELDQSQLSEVYDALALRYRQEPYRLKLAYVLKRLENTRDRNLALYKGETPTNEDSPMYRSGSEFLAELRLIQHNLTETGLSCRELDNLICQVEIFDFNLTKLDIRQESTRHSDALNEILDYLQLLPQPYNDLSEEQRVAWLTTELQTRRPLISSELPFSDKTNDVIKTFRVVRSLQQEFGINICQTYIISMCRQVSDVLEVLLLAKEARLFDPAIAVGTIQVVPLFETVEDLQRSRSVMRQLFELPLYRALLAGGYKNTEVKVPNTELTPQSPAPSPQSVLTPDLQEVMLGYSDSNKDSGFLSSNWEIHKAQKSLQQIAEEYGVNLRIFHGRGGSVGRGGGPAHEAILAQPGHSINGRIKITEQGEVLASKYSLLDLALYNLETITTAVIQASLLRTGFDDIEPWNEIMEELAARSRQHYRGLIYEQPDFIDFFHQVTPIEEISQLQISSRPARRPSGKKDLSSLRAIPWVFSWTQTRFLLPSWYGVGTALQEFFNEEPEEHLKLMRYFYVKWPFFKMVISKVEMTLAKVDMQMAGHYVQELSDPEDKPRFEKVFEQIANEYYLTRDLVLKITDHGRLLDGDPVLQRSVQLRNGTIVPLGFIQVSLLKRLRQSKNNTATSGVIHSRYSKGELLRGALLTINGIAAGMRNTG
- Km (purified protein; 10 mM MgCl2, pH and temperature not stated (optimum pH 8.0, 35 °C), pH 8.0, 35.0 °C): 240 µM
- Km ([4]; 50 mM NaHCO3, 10 mM MgCl2, pH and temperature not stated (optimum pH 8.0, 35 °C)): 1100 µM

B4: AnPEPC (Nostoc sp. PCC 7120 = FACHB-418; K946E) (protein)
chain: MGSVLYSLSESANLYPASELFLRHRLQIVEELWESVLRQECGQNMVDLLRQLRDLCSPEGQATKDQAVSAVKLIEQLNINEAIRAARAFALYFQLINIIEQEYEQRQQLTRYSDLEAETAPLNGSENITSSSNHNEDDVIFNRGLGTDFLGKNWTNRGQGKQKGTFAALFPLLSKLNVPPQQIQRLISQLDVRLVFTAHPTEIVRHTIRDKQRQVVDLLQQLDEVENRAKDGGGYPWEAGEIREKLLEEIRLWWRTDELHQFKPTVLDEVDYALHYFQEVLFDGIPQLYKRFKYALNQTFSWLEPPSKDFCSFGSWVGSDRDGNPSVTPEITWQTACYQRKMVLERYIKSVTQLIELLSISMHWSDVLPDLLESLELDQSQLSEVYDALALRYRQEPYRLKLAYVLKRLENTRDRNLALYKGETPTNEDSPMYRSGSEFLAELRLIQHNLTETGLSCRELDNLICQVEIFDFNLTKLDIRQESTRHSDALNEILDYLQLLPQPYNDLSEEQRVAWLTTELQTRRPLISSELPFSDKTNDVIKTFRVVRSLQQEFGINICQTYIISMCRQVSDVLEVLLLAKEARLFDPAIAVGTIQVVPLFETVEDLQRSRSVMRQLFELPLYRALLAGGYKNTEVKVPNTELTPQSPAPSPQSVLTPDLQEVMLGYSDSNKDSGFLSSNWEIHKAQKSLQQIAEEYGVNLRIFHGRGGSVGRGGGPAHEAILAQPGHSINGRIKITEQGEVLASKYSLLDLALYNLETITTAVIQASLLRTGFDDIEPWNEIMEELAARSRQHYRGLIYEQPDFIDFFHQVTPIEEISQLQISSRPARRPSGKKDLSSLRAIPWVFSWTQTRFLLPSWYGVGTALQEFFNEEPEEHLKLMRYFYVKWPFFKMVISKVEMTLAKVDMQMAGHYVQELSDPEDKPRFEKVFEQIANEYYLTRDLVLEITDHGRLLDGDPVLQRSVQLRNGTIVPLGFIQVSLLKRLRQSKNNTATSGVIHSRYSKGELLRGALLTINGIAAGMRNTG
- Km (purified protein; 10 mM MgCl2): 250 µM
- Km ([4]; 50 mM NaHCO3, 10 mM MgCl2): 800 µM
